The values below come from article PMC6825267.

Read-outs that look alike come from different tables or passages of the source.

Holding throughout (test): EMSA
The target in data set [1] is T1, RZ-1C (Arabidopsis thaliana, UniProt Q8RWN5 1-310).
T1 sequence: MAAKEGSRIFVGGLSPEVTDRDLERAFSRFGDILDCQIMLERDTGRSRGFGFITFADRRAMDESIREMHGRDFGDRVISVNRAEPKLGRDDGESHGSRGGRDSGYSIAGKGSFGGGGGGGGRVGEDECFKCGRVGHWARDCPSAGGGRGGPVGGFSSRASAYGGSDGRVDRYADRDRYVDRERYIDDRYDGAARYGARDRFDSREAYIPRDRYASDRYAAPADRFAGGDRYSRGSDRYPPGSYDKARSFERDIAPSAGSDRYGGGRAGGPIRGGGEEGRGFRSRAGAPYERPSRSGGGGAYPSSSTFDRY

The target of data set [2] is T2, HIN1 1-267 (N-terminal, MYB/SANT domains) (Arabidopsis thaliana, UniProt F4J686 1-267).
T2 sequence: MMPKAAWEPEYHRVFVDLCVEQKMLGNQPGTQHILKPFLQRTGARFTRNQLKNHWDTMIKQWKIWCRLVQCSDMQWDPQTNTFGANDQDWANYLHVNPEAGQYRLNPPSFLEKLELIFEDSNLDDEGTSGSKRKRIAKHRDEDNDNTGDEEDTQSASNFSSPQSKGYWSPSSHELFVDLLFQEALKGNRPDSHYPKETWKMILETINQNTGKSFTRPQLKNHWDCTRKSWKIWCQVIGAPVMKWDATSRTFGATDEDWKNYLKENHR

Data set [3] addresses T1, RZ-1C. This is another data set of the same source.
In data set [4] the target is T2, HIN1 1-267 (N-terminal, MYB/SANT …). This is another data set of the same source.

With UUUCGACUUGAAGAUCUCAUC (ssRNA) [M2 probe (motif reduced to GAAGA)], the binding result (in the data set with RZ-1C [1]; in data set [2]) was “no binding” each time.

For the molecule UUUCGAGAAGAAGAAGACAUC (ssRNA) [M probe (GAA repeat, AT1G50740 intron 1 flank)], the binding result (with RZ-1C [3]; in data set [4]) was “binds” in each case.

On to UUUCGACUUCUUCUUGACAUC (ssRNA) [U probe (GAA repeat to CUU)], for which the binding result (in the data set with RZ-1C [3]; in data set [4]) was “no binding” each time.
